Laboratory results taken from the supplement of paper PMC10567573.

B1: CRYL1 (parent)
chain: RNALENIRKEMKLLEQAGSLKGSL
B2: ZNF8 (parent)
chain: SLGRHKRTHTGEKPYTCSVCGKSF

Variants of: B1
Test: protein stability index of a GFP-peptide fusion (GPS, HEK-293T) (PSI 1-6); higher = more stable
Settings: c terminus: a fixed tail appended
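Also: lentivirally expressed fusions sorted by FACS into six bins by GFP to DsRed ratio, PSI derived from sequencing read proportions per bin multiplied by bin number.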

Protein stability index of substitutions, site by site:
G18: A 4
K12: D 4.23, M 2.89, H 3.46, A 3.46, C 3.43, L 3.55
L14: E 4.88, M 2.68, R 3.93, N 4.11, Y 3.86, F 3.19, D 4.36
L24: A 4.11, M 3.3
K21: N 3.34, V 2.73, Q 3.18, S 3.46
L13: Q 4.5, S 4.04, T 3.04, D 4.12
I7: L 2.48, E 4.02, M 3.29, A 4.35
G22: L 2.02, K 4.21, E 3.57
A17: I 2.71, R 3.38
E10: G 2.87, D 3.33, R 1.87, P 3.06, V 2.63, W 2.89
E5: K 2.7
M11: W 2.21, H 4.45, C 3.37, V 3.23
S23: A 2.9, K 3.39, V 2.2, I 2.45, R 3.07, W 1.95
R8: M 2.92, G 3.77
N2: C 2.72, Y 2.48, H 3.49, E 3.65, W 2.34, S 2.85
Q16: Y 2.37, F 2.71, R 2.86
L20: K 4.55, H 3.99
S19: H 3.04, W 2.03, M 2.56, L 2.36, V 2.66, N 3.66
R1: C 2.87
A3: Y 2.56, P 4.1, V 2.83, K 3.48, G 3.34, D 3.75
L4: V 3.65, F 2.92, T 4.37
N6: Q 3.03, V 3.03, A 3.66, F 1.68, I 2.45, E 3.2
K9: T 3.43, W 1.8, M 2.32, Y 2.78, P 3.58
E15: H 2.77, I 1.71

Variants of: B2
Test: as above
Settings: c terminus: a fixed tail appended

Protein stability index, by site and new letter:
L2: W 2.93, P 2.77, A 2.71, I 2.99, H 4.09, C 4.3, D 3.19, V 2.8, R 2.04, Q 2.25, E 2.8, Y 3.26, G 2.95, T 3.12, K 3.66, F 2.61, N 3.82, M 2.67
S1: E 3.94, A 2.86, I 2.18, H 3.08, T 2.94, V 2.58, G 2.8, Y 2.42, D 3.4, L 1.73, F 2.21, C 3.6, M 2.46, W 1.5, R 2.82, K 3.05, P 2.72, N 2.63, Q 3.71
H5: C 3.77, Q 2.84, K 3.01, G 3.18, L 2.26, I 3.34, T 3.06, F 1.82, N 2.52, Y 2.72, R 3.03, M 2.6, W 2.46, D 3.17, A 2.5, P 2.78, E 3.15, S 2.35, V 2.54
H9: Q 3.98, G 2.16, R 2.94, M 2.59, L 2.18, S 2.66, P 2.96, C 2.59, W 2.83, E 3.06, D 2.79, V 2.47, A 2.82, F 2.09, I 2.84, K 3.13, T 2.78, Y 3.15, N 2.67
E12: I 2.53, C 2.24, M 2.41, A 2.7, K 2.79, L 2.37, D 2.64, P 3.28, F 1.74, G 2.79, T 2.24, R 3.19, N 3.1, H 2.52, S 2.64, V 2.11, W 2.2, Q 2.77, Y 3.15
P14: D 3.11, C 2.73, A 2.23
K13: A 3.72, D 2.34, R 2.39, T 2.92, L 1.99, S 2.94, N 2.48, Q 2.71, E 2.39, W 3.06, I 2.65, G 2.61, H 2.96, C 2.88, Y 2.31, F 2.2, P 2.71, M 2.4
R7: V 3.37, H 3.65, Q 2.98, K 3, I 3.39, L 2.66, G 4.28, C 4.55, A 2.42, S 3.34, M 2.44, Y 2.96, N 3.38, T 2.32, F 2.83, W 2.8, E 4.08, D 3.02, P 2.98
T8: N 2.44, H 3.05, C 2.45, Y 2.65, E 2.97, A 3.09, P 2.64, G 2.68, W 2.2, F 2.6, K 3.17, Q 3.17, I 1.91, M 1.9, R 2.83, S 3.02, V 2.68, D 3.45, L 2.61
T10: H 2.98, W 2.33, D 3.47, C 2.08, L 2.19, P 2.56, N 3.44, M 2.74, I 2.77, A 2.84, Y 2.18, S 3.28, K 2.84, Q 3.12, G 3.3, F 1.88, E 2.86, V 2.09, R 2.32
K6: F 1.82, C 3.29, W 1.94, Q 2.95, D 4.27, N 2.48, H 1.97, L 2.04, S 2.61, V 2.35, T 2.97, Y 3.23, E 3.29, M 2.38, A 2.68, R 2.77, G 2.33, I 2.43, P 2.18
G3: R 2.03, A 2.12, K 4.65, P 3.02, S 1.93, T 3.28, N 2.21, E 3.41, M 2.66, I 3.15, W 1.98, V 3.78, Y 2.79, D 3.32, L 1.21, C 3.68, H 4.17
R4: P 2.34, H 2.85, S 3.19, M 2.5, V 2.5, E 4.09, Q 2.2, T 3.61, C 4.3, W 2.13, F 2.57, D 3, I 1.89, N 3.1, G 3.44
G11: Y 2.94, C 2.77, W 3.56, Q 2.53, E 2.51, N 2.3, S 2.79, I 2.07, V 1.98, P 2.73, D 3.24, K 2.9, L 2.42, A 2.17, M 2.41, F 2.4, T 3.09, R 2.53, H 3.29
